Results taken from a protein production outcome set (Wang et al. 2014).

Assay: label from the status in PepcDB records
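Also: failed if final PepcDB status was selected cloned or expressed and not failed if soluble or beyond.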

Sequence	protein production
MNNTKTYSKTSIALHWIVGLAFIGVFIIGAYLSDLPRGPEKMELVALHKSFGVLILLIALARVFWRIKEGAIPPASVMPAWQEKVAKAVHGLLLLATLAMPLSGIAMNIGGGRALEVFGYTLVAAGEKVVWLQELGAAVHKTAPPIIIAIVLLHIAAVLKHHLIDKDATMARMLGRG	failed
MNNTPKLKLGIVAVSRDCFPMELSENRRKAVVDAYNGEIFECLTTVENEKDMRKALKEVKSAGVNALVVYLGNFGPETPETLIAKEFDGPVMFAAAAEERGDNLVNGRGDAYCGMLNASYNLALRNINAYIPEYPVGTASDVANMINEFVPVATALIGLKNLKIISFGPRPQDFLACNAPIKQLYNLGVEIEENSELDLFASFNEHENDSRIPDVVKDMEEELGEGNKMPGILPKLAQYELTLLDWAEEHKGSREYVVFANKCWPAFQTQFGCVPCYVNSRLTARGIPVSCEVDIYGALSEYIGTCVSQDVVTLLDINNTVPKDMYESEIKSKFNYTLKDTFMGFHCGNTAACKLTSGTMKNQMIMARALEPNQEPNITRGTLEGDIVPGEITFFRLQSNADSELTAYVAEGEVLPVKTRSFGSIGVFAIPQMGRFYRHVLIENRFPHHGAVAFGHFGKAIYNLFRYLGVKEVGFNRPKEMLYKTENPFELEHHHHHH	not failed
MNNVFGLDIGTRNVVGTVGYQTDDKEFVVTAQYVREHETRAMLDGQIHDIGRVAKTIKEVKDELEKQTGQPLEEVCIAAAGRVLKTVTTHVEYEYAQESVVTGEDVHTLDLLGIEKAQEALKEVNDTSYKFYCVGYSTVKFFLNDEVFISLEGHKANKIGEDIIVTFLPEDVVDGLYAAVGQAGLSVANMTLEPIAAINVAIPENYRMLNIALVDVGAGTSDISITRDGSIIAYGMIPHAGDELTEVIVQHFLVDFNMAESIKLQSTTSDTVTYKDIMSIEHTIPAQDVWDVAAPVVDNIAQEVSAKIRELNGDKTVSACFVVGGGGKIHGFTEKLAEDLDLPEERVALRGEEVLGDVTFEQEDIKKDPLLVTPIGICLNYYDQRNNFIMVRFNGERIKLYDNNRLTIVDAALQAGFPNDELFPKRGTPINFTVNGVARLVRGEAGEGAVVTMNGKPASINTPLEPNSEIIIEPSTAGEAAVYKISQLDEYNHSVITFIINGRRVSCPRFVQVNGELEPEDYSIRENDVIETRNYYTVRQIAQFMDLVIDTDQMIFVNNEEAGLDTLVYENFSVEWKTDEYGVARIDNNTYNDTQESDTDEASVLAEQDANSTESDNTVARTSEQMMNQVLDELHDDFAKEAEASAVPENELPENELPKNDIQEEIHEEDSSKNTVTVIVNGEPVELSGKDTYIFVDIFTHISFDLQAGKGRAIATVINGRDARFSEELHEGDKIELYWKEN	failed
MNPIPADVAAVVLAGGVGRRFGRPKALAMMDGISLVERAVEALSSGPADVYVSVSPALERPVARLVGSRRVIVDLVEQAPCEGPLRAFLTAASTLVSYSNLVFMPVDAPWASWRDLEPIYNASKAIGSGASYFSGEGIVHPLFLAARRKSLLTAAWTACWGRAEKRASAILRSLDPLILLGSSETRSPLALATVNTPQDLWRPSRVPAPAEGYILLEGHSILYKISSTMNSYYSALALEAEYKLYRRLGLLRLASHVLKDAAALNVSTSLIQQESMAGGLGLEHHHHHH	failed
MNPLARFLALAGFTVALASCQMFTPPEVQESGFQPSDRPITVDNVGANNKLAELAKAQHPRILATYGGEYSDPKLERMVAKVVGNLTVVSANPTQTYRITILNSPNVNAFALPGGYLYITRGLLALANDSSELAAVIAHEMGHVTANHGLQRQQLEAEEGLATKVVSDVLGDSPTAKAALIRGKLRLAQFSRNQELEADAIGIKSIGEAGYDPYAAGRFLQSMSAYTDFRSISGATDASLDFLATHPNTPQRIDLAQRHARQFGAPGVGTRDRDSFLAGIDGLLYGDTPEEGYVRGETFLHPGLGVSFTVPDGFIIDNSAAAVTATGPGDIAIRFDGVSIDKNRALTDYIRSGWVAGLDDSTVKQETINGNEAATAHAGAEGWQFDIAVIRAGGQVYRLLTAAPSASTSLETVARSVSGSFRVLSAAEKAALKPLHIRVLTVQPGQTMGSLAAQMVGVDRKLDLFRVLNALSPGAAVSAGDKVKIVTDK	failed
MNPSDRKDAVNPFGKLTFLVVDDFENFRLSMRQMLRSCGADKIELVAHATPAIQYCTYNHVDVVLCDYNLGEGKNGQHVLEELRHKKLLKRSSLFLMVTAETSKEMVMGAREYQPDGYLTKPINRAMLEQRLGSLIKQRNALLPITREIDRENYPEAISLCLQTLPKQPRYKTWLMKTLGELYFMVGDLAHAQKVYDDVLNQRELSWARLGRCKVLLANRNFDQAVDGLKALIEKHPDYMEAYDLLAEGLQKQGRSAQAQQVLEKAAEHSPNALLRQKHLAELAGANQDIDTASQAWRQTVSLGTYSIHDNAEHYLSLAQSLSDLSEGDLDEEGAARSSEALSVLTKMEKRFDNDETIGLKSRIVQCRLHAGQGRHREAEKILTAVSSELESLEELPADMGLDFAKTLFRMGREDQAKRILGDLASRFDNDPDTLQKIENLLDEPVGFRQKLEARSMNRDGIKAFEAGDLDAAVEAFNKALAIVPDHAALNLNLVQVLMKQYDQNPEPALLAACQQRLDHLNKLPEQHRQHRRYLALTRKLKGLTA	failed
MNQAAQQSAPSRLRDRTLAAFTLMVSQPALAAIAALAALYALLAVVGGILTFSPVPFWDMWDGGLGFYVRQMTDVSQWWAQHNEHRIVLSRILFFLDYRYFDSNGAVLVVINYLLACSTFGLLAWCALQRDASRRRDGRMIAAFILCCALLWTQSNNLTWAFQSQFFLANLLPLLALVLLHASCRTRIRGNAIVFLAALTVAAMAAVSMANGVLAGGVVAAACLLGRQSWRRNLLAWAVAIAVPALYFHHYTAPAGHGSILASLRTEPLEVIKFFFAYIGSPFAHLDASGPLHLGWAILAGVVLLTAGAILAWRTIFKRHDTVDVDLVVTLFLGYLVASAFATAGSRALFGLDAAVASRYTTPGLLVLGCVLILASRNFFRDRALTMPYQIGLALMALAFLPSQLTATRPQPYLDFEWRFAALALELGVKDDKQIGWIFPDAAWAQKIAEPAANMGLGIFAKPGIYDAKLTLGGSYPTSSLQTCSLAGLENEAVDASTNDWIRLKGGLMNSILPRKISTVLLVDANNTIVGRGLLAEPKQDSPGAPFGAPFKAYLMGRAQPAVYKIVIPGFCTTTVAPKSQ	failed
MNQEKIADLKNWMHQEKIDFTYISDPGHIAYFSGYESEPHERVLALFIAADDQSFLFTPALEVEDAEKSSWTYPVYGYLDSENPWEKIAALLNKRTQGTPRFALEKQALSLARFDQLKTYFPASDFSHDVTPLIEKLQLIKTEPEIQRLLEAGSWADVAFEIGFKAIQAGVAEQEIVAEIEYQLKRQGIRSMSFDTLVLTGKNGASPHGVPGETKIEPHDLVLFDLGVVHNGYCSDATRTVSYLEPSDFQKEIYGIVLEAQLAATEAVKPGVTAGELDDIARGVITKAGYGEYFNHRLGHGIGTTVHEYPSLVHGNDLVIEEGMCFSIEPGIYIPGKVGVRIEDCLHVTKTGSEPFTKTTKELQIIQ	failed
MNQPTSETRTVVVERELPHSPEKIWRALTQPHLIEAWLMKSDFEPVAGRTFSFHADWGSVDCTLLTIEPERVLSYTWAAYGLESVVTWTLTPTPGGTLLRMEQAGFRADQEQAYRGAQQGWVRFFDSLEQVVARADEDEEGRA	failed
MNQRDVILDCEKKLLTAIQNNDVESLEVLLHDDLLFIIPSGETVTKETDIAAYSSGKIALRAVVPSDYIIRIIHDTVVVSVNIEIKGEYMEHTLDNTFRYLRVWKLFDGNWKVIAGSCTAIG	not failed
MNQTKTTDDNNNNSKPDETESTTTVPEWITETINGGSFHHVDLETGTNGWASPPGNVFSLRSNNYFTTKQKSPGGDYLLSLIAVDWLKSTTKKLDHILCRPDNRVIHALETSQSRSFIFAVNFQIPGKEHYHLVLYFATEKPIPSDSILHKFINIDDDSFRNERFKVVTNVVKGPWVVKATAGKLGAFLAGKVVKCSYYRGANYFEVDVDFSISAIYSALVRLTLGYVTNLVADVGFVVEAQTEEELPERLIGGGRVCYMELSSAFLVDDGKKMGAAEGNHSEDEI	failed
MNRLCVLGLLIGLSGSPALAAGQGESGNPPATDKERFIASLMARMSNAEKIGQLRLVSVGADHPKEALMADIRAGKVGAIFNTVTRPDIRAMQDQVRHSRLKIPLFHAYDVAHGHRTIFPISLGLAASWDPEVVARSARISALEASADGLDMSFSPMVDITRDARWGRVSEGFGEDTYLTSLLSGVMVRAYQGSNLAAPDSIMAAVKHFALYGAAEGGRDYNTVDMSLPRMFQDYLPPYKAAVDAGAGAVMVSLNTINGVPATANRWLLTDLLRQQWGFKGLTISDHGAVKELIKHGLAGNERDATRLAIQAGVDMNMNDDLYSTWLPKLLAAGEIDQADIDRACRDVLAAKYDLGLFADPYRRLGK	failed
MNRLFGNGRCLDVAIDHGVCNEPSFLDGLENMPAVVKALVDARPDAIQMNYGQADLLQDLPGKDKPALVMRIDMGNPYNRIRHRDMWAVLQNEAEPLVGALQMDAACVVVNLFMLPDEPDLFRQCVQNISRVRADCEKYGMPLMIEPLVMQPVTERGGYMVDGDADKIVTLTRLAREMGADIVKADPTTNAEDFHRVVEAARCPVLVRGGGKEDLAAVFAKSTALMRQGAMGMVYGRNIYQHANPSAVVRGLMAIIHQDASGEEAVAIYRQG	failed
MNRLLELSNEIFRIKTDDYTFPLFSSLHFKIILCVVITIFIAIIFKEKIKKWKYRRTFEVTTALILLSTQIFLAIWYSRFPNFYLKESLPLYPCRIAIIMAAIGLIWKKNDFAKSIAYFWGTIGAIGALMIPITNSYIFPHITYYTFFIGHYFLLIASLYLILIEEFKVKSKNVKQALIFSFIFAICAFIANYLFDANYAFLNPPNGYEILNIINVESNIITTSIFAYFIFVLGIFIMYLPFNMSDYKKDSLFECSLIKY	failed
MNRPAMPFANTVPGFLPFLNDEKGLRQESQQRYLYTLRPFEAYLNRGGIALSGLEPAHISRFLEERAKTLHKAGMRDTAGALRIFLRYLHREGIVATDLVRSVPRGRIYRQASIPRALEHHHHHH	failed
MNRPGVLTSPGSIPLRPRRRDPSGPASARARVEARQRVGKILVVAGWIVSLAGVAIYCVTSFAAGADADLAAILIDGAIPAARAGLAVVGVGTLTWVVGSILHLNASLDAADAERDGPAEG	failed
MNRQLLLDVLPAPAPALNNYIAGPNGQALAAAHALTAGRAIYLWGPAGCGRTHLLRGLSARPEAIYIDAARAAQSLRELAEADSTAPMPRLVAVDDVHRMDDARQAGLFALYNRWRESAATGRAFALAVSGDRAPMSLPLREDLRTRLGWDLVFRLDPLSDADKLAALTAQAAERGLQLAPEVINWMLTHHERDIRKLAALLDALDRYSLATGRPITIPLLRAMLADPHSQATLEHHHHHH	not failed
MNRRGGQTAFAAIARNERAIAAFIPYSSHLTDTTLITHGADLVRTWRVQGIAFESAEPELVSQRHEQLNGLWRAISCEQVALWIHCIRRKTQAGLDARYENPFCRALDASYNARLNARQAMTNEFYLTLVYRPGHAALGKRAHHGQAEVRRQLLAHVRRMDEIGSLIETTLRSHGENHEQAITVLGCETDSAGRRYSRTLTLLEFLLTGHWQPVRVPAGPVDAYLGSSRILAGAEMMELRAPTCRRYAQFIDFKEYGTHTEPGMLNALLYEDYEYVITHSFSAVGKRQALAYLQRQRAQLANVQDAAYSQIDDLAHAEDALVNGDFVIGEYHFSMMILGADPRQLRRDVSSAMTRIQERGFLATPVTLALDAAFYAQLPANWAYRSRKAMLTSRNFAGLCSFHNFYGGKRDGNPWGPALSLLSTPSGQPFYFNFHHSGLDEDCRGQMMLGNTRIIGQSGSGKTVLLNFLLCQLQKFRSADADGLTTIFFDKDRGAEICIRALDGQYLRIRDGEPTGFNPLQLPCTDRNVMFLDSLLAMLARAHDSPLTSAQHATLATAVRTVLRMPASLRRMSTLLQNITQATSEQRELVRRLGRWCRDDGAGGTGMLWWVFDNPNDCLDFSRPGNYGIDGTAFLDNAETRTPISMYLLHRMNEAMDGRRFVYLMDEAWKWIDDPAFAEFAGDQQLTIRKKNGLGVFSTQMPSSLLGARVAASLVQQCATEIYLPNPRADRAEYLDGFKCTETEYQLIRSMAEDSHLFLVKQGRQAVVAQLDLSGMDDELAILSGNARNLRCFEQALALTRERDPNDWIAVFHRLRREASAGLR	failed
